Assay results taken from FireProtDB.
Several values for one entry are separate records, joined by “and”; a condition that tells them apart may be missing. Equal entries are not always repeated.

Conditions: whole UniProt chain shown
[1] = Mus musculus, pH 2, Thermal, DSC, Potassium phosphate 40 mM, reversible: yes
[2] = Mus musculus, pH 2.7, Thermal, DSC, Potassium phosphate 40 mM, reversible: yes
[3] = Mus musculus, pH 7, Thermal, DSC, Potassium phosphate 40 mM, reversible: yes
[4] = Nitratidesulfovibrio vulgaris (strain DSM 19637 / Miyazaki F), pH 7, 20 °C, GdnHCl, CD, phosphate 0.1 M, reversible: yes
[5] = Momordica charantia, pH 7.5, 25 °C, GdnHCl, fluorescence, Tris-HCl 10 mM, NaCl 200 mM
[6] = Notophthalmus viridescens, pH 7.2, 25 °C, GdnHCl, CD, Phosphate 100 mM
[7] = Oryctolagus cuniculus, pH 7.4, Thermal, DSC, sodium phosphate 50 mM, reversible: yes
[8] = Niallia circulans, pH 6, Thermal, DSC, HEPES 100 mM, reversible: No
[9] = Niallia circulans, pH 8.5, Thermal, DSC, HEPES 100 mM, reversible: No
[10] = Niallia circulans, pH 10, Thermal, DSC, CHESS 100 mM, reversible: No
[11] = Pseudomonas aeruginosa (strain ATCC 15692 / DSM 22644 / CIP 104116 / JCM 14847 / LMG 12228 / 1C / PRS 101 / PAO1), pH 7, 20 °C, GdnHCl, CD, phosphate 5 mM, reversible: yes
[12] = Pseudomonas aeruginosa (strain ATCC 15692 / DSM 22644 / CIP 104116 / JCM 14847 / LMG 12228 / 1C / PRS 101 / PAO1), pH 8, Thermal, DSC, Tris-HCl 10 mM, NaCl 200 mM, reversible: yes
[13] = Manduca sexta, pH 7, 25 °C, GdnHCl, CD, Potassium phosphate 50 mM, reversible: yes
[14] = Pseudomonas aeruginosa (strain ATCC 15692 / DSM 22644 / CIP 104116 / JCM 14847 / LMG 12228 / 1C / PRS 101 / PAO1), pH 7, Thermal, CD, KH2PO4-NaOH 10 mM, reversible: yes
[15] = Phaseolus vulgaris, pH 7, 25 °C, GdnHCl, CD, Potassium phosphate 50 mM, Na2SO4 0.5 M, reversible: yes
[16] = Phaseolus vulgaris, pH 7, 25 °C, GdnHCl, Fluorescence, Potassium phosphate 50 mM, Na2SO4 0.5 M, reversible: yes
[17] = Mus musculus, pH 4, 25 °C, GdnHCl, CD, Sodium acetate 10 mM, reversible: yes
[18] = Mus musculus, pH 4, 25 °C, Urea, CD, Sodium acetate 10 mM, reversible: yes
[19] = Mus musculus, pH 7.4, 25 °C, Urea, CD, Tris-HCl 10 mM, reversible: yes

B1: Lipase B wild type, P41365 (protein)
chain: MKLLSLTGVAGVLATCVAATPLVKRLPSGSDPAFSQPKSVLDAGLTCQGASPSSVSKPILLVPGTGTTGPQSFDSNWIPLSTQLGYTPCWISPPPFMLNDTQVNTEYMVNAITALYAGSGNNKLPVLTWSQGGLVAQWGLTFFPSIRSKVDRLMAFAPDYKGTVLAGPLDALAVSAPSVWQQTTGSALTTALRNAGGLTQIVPTTNLYSATDEIVQPQVSNSPLDSSYLFNGKNVQAQAVCGPLFVIDHAGSLTSQFSYVVGRSALRSTTGQARSADYGITDCNPLPANDLTPEQKVAAAALLAPAAAAIVAGPKQNCEPDLMPYARPFAVGKRTCSGIVTP
Tm (Pseudozyma antarctica, pH 7, Thermal, CD, Tris-HCl 50 mM, reversible: No): 57.7 °C
Tm (Pseudozyma antarctica, pH 7, Thermal, Differential Scanning Fluorimetry, HEPES 10mM): 54.8 °C

B2: Ig gamma-1 chain C region secreted form wild type, P01868 (protein)
chain: AKTTPPSVYPLAPGSAAQTNSMVTLGCLVKGYFPEPVTVTWNSGSLSSGVHTFPAVLQSDLYTLSSSVTVPSSPRPSETVTCNVAHPASSTKVDKKIVPRDCGCKPCICTVPEVSSVFIFPPKPKDVLTITLTPKVTCVVVDISKDDPEVQFSWFVDDVEVHTAQTQPREEQFNSTFRSVSELPIMHQDWLNGKEFKCRVNSAAFPAPIEKTISKTKGRPKAPQVYTIPPPKEQMAKDKVSLTCMITDFFPEDITVEWQWNGQPAENYKNTQPIMNTNGSYFVYSKLNVQKSNWEAGNTFTCSVLHEGLHNHHTEKSLSHSPGK
Tm [1]: 69.3 °C
unfolding enthalpy (calorimetric) [1]: 84 kcal/mol
Tm [2]: 69.5 °C
unfolding enthalpy (calorimetric) [2]: 86.6 kcal/mol
Tm [3]: 70.2 °C
unfolding enthalpy (calorimetric) [3]: 174 kcal/mol

B3: cAMP-dependent protein kinase type I-beta regulatory subunit wild type, P12849 (protein)
chain: MASPSCFHSEDEDSLKGCEMYVQKHGIQQVLKECIVHLCVAKPDRPLRFLREHFEKLEKEENRQILARQKSNSQCDSHDEEISPTPPNPVVKARRRRGGVSAEVYTEEDAVSYVRKVIPKDYKTMTALAKAISKNVLFSHLDDNERSDIFDAMFPVTHIGGETVIQQGNEGDNFYVIDQGEVDVYVNGEWVTNISEGGSFGELALIYGTPRAATVKAKTDLKLWGIDRDSYRRILMGSTLRKRKMYEEFLSKVSILESLEKWERLTVADALEPVQFEDGEKIVVQGEPGDDFYIITEGTASVLQRRSPNEEYVEVGRLGPSDYFGEIALLLNRPRAATVVARGPLKCVKLDRPRFERVLGPCSEILKRNIQRYNSFISLTV
unfolding free energy (Mus musculus, pH 7, 23 °C, GdnHCl, Fluorescence, MOPS 5 mM, KCl 100 mM, reversible: yes): 7.2 kcal/mol
unfolding free energy (Mus musculus, pH 7, 23 °C, Urea, Fluorescence, MOPS 5 mM, KCl 100 mM, reversible: yes): 7 kcal/mol

B4: Cytochrome c-553 wild type, P00120 (protein)
chain: MKRILVVMSICAALAFGVSAAMAADGAALYKSCVGCHGADGSKQAMGVGHAVKGQKADELFKKLKGYADGSYGGEKKAVMTNLVKRYSDEEMKAMADYMSKL
denaturant m value [4]: 2.49 kcal/mol/M and 2.75 kcal/mol/M
denaturant midpoint (higher = more stable) [4]: 3.65 M and 3.91 M
unfolding free energy [4]: 9.08 kcal/mol and 10.8 kcal/mol

B5: Ribonuclease MC wild type, P23540 (protein)
chain: FDSFWFVQQWPPAVCSFQKSGSCPGSGLRTFTIHGLWPQGSGTSLTNCPQGSPFDITKISHLQSQLNTLWPNVLRANNQQFWSHEWTKHGTCSESTFNQAAYFKLAVDMRNNYDIIGALRPHAAGPNGRTKSRQAIKGFLKAKFGKFPGLRCRTDPQTKVSYLVQVVACFAQDGSTLIDCTRDTCGANFIF
denaturant midpoint (higher = more stable) [5]: 2.57 M
unfolding free energy [5]: 13.2 kcal/mol
Tm (Momordica charantia, pH 7.5, Thermal, CD, Tris-HCl 10 mM, NaCl 200 mM): 64.4 °C

B6: wild type, P95467 (protein)
chain: MKKALIASTALLLTAGVAAADVKISGYGRTGVIYYENDSDVNESRVQSRLRMNIDASSSTDSGVDFGARFRLQWDQGEEGEAQTNAGKLWVSAQGFTVEVGNVDTAFASNGLIYETGLGSYDRSVGFSAVTGAFFAYDSNGYGIDEVDRVGIRALYTLGDLTLQASYVDPDQSGTVIGVEEEFGFSVDYTWNERLELSAAAAFNGAGIDGNDIYFLGARYAVMDNARIGLNFVDAGDEEDGYDGKTIALYGDYTLADGRTNLEAYIANNDRDSNETDNAFGIGVNYDLGGARLGASLQRDYAENVTADFGVRFEF
Tm (Paracoccus denitrificans, pH 1.5, Thermal, CD, Unknown, reversible: No): 78.5 °C
Tm (Paracoccus denitrificans, pH 4, Thermal, CD, Unknown, reversible: No): 82.6 °C
Tm (Paracoccus denitrificans, pH 8, Thermal, Absorbance, Tris-HCl 50 mM, NaCl 100 mM, reversible: no): 86.2 °C
Tm (Paracoccus denitrificans, pH 8, Thermal, CD, Unknown, reversible: No): 86.2 °C
Tm (Paracoccus denitrificans, pH 10, Thermal, CD, Unknown, reversible: No): 86.2 °C

B7: Fibroblast growth factor 1 wild type, Q7SIF8 (protein)
chain: QKPKLLYCSNGGYFLRIFPDGKVDGTRDRSDPYIQLQFYAESVGEVYIKSLETGQYLAMDSDGQLYASQSPSEECLFLERLEENNYNTYKSKVHADKDWFVGIKKNGKTKPGSRTHFGQKAILFLPLPVSSD
denaturant m value [6]: 3.8 kcal/mol/M
denaturant midpoint (higher = more stable) [6]: 1.6 M
unfolding free energy [6]: 6.1 kcal/mol

B8: Serine proteinase inhibitor IA-1 wild type, Q7M4T6 (protein)
chain: SAGKFIVIFKNDVSEDKIRETKDEVIAEGGTITNEYNMPGMKGFAGELTPQSLTKFQGLQGDLIDSIEEDGIVTTQ
Tm (Pleurotus ostreatus, pH 7, Thermal, CD, sodium phosphate 50 mM): 59 °C

B9: Harpin HrpZ wild type, P35674 (protein)
chain: MQSLSLNSSSLQTPAMALVLVRPEAETTGSTSSKALQEVVVKLAEELMRNGQLDDSSPLGKLLAKSMAADGKAGGGIEDVIAALDKLIHEKLGDNFGASADSASGTGQQDLMTQVLNGLAKSMLDDLLTKQDGGTSFSEDDMPMLNKIAQFMDDNPAQFPKPDSGSWVNELKEDNFLDGDETAAFRSALDIIGQQLGNQQSDAGSLAGTGGGLGTPSSFSNNSSVMGDPLIDANTGPGDSGNTRGEAGQLIGELIDRGLQSVLAGGGLGTPVNTPQTGTSANGGQSAQDLDQLLGGLLLKGLEATLKDAGQTGTDVQSSAAQIATLLVSTLLQGTRNQAAA
unfolding enthalpy (calorimetric) (Pseudomonas syringae pv. syringae, pH 7.5, Thermal, CD, Sodium phosphate 5mM): 33.8 kcal/mol and 58.3 kcal/mol

B10: Cytochrome b5 wild type, P00169 (protein)
chain: MAAQSDKDVKYYTLEEIKKHNHSKSTWLILHHKVYDLTKFLEEHPGGEEVLREQAGGDATENFEDVGHSTDARELSKTFIIGELHPDDRSKLSKPMETLITTVDSNSSWWTNWVIPAISALIVALMYRLYMADD
unfolding free energy (Oryctolagus cuniculus, pH 7.4, 25 °C, Thermal, DSC, sodium phosphate 50 mM, reversible: yes): 1.7 kcal/mol
Tm [7]: 48.5 °C
heat capacity change of unfolding [7]: 1 kcal/mol/K
unfolding enthalpy (calorimetric) [7]: 35.7 kcal/mol

B11: Phosphoserine aminotransferase wild type, Q59196 (protein)
chain: MSKRAYNFNAGPAALPLEVLERAQAEFVDYQHTGMSIMEMSHRGAVYEAVHNEAQARLLALLGNPTGYKVLFIQGGASTQFAMIPMNFLKEGQTANYVMTGSWASKALKEAKLIGDTHVAASSEASNYMTLPKLQEIQLQDNAAYLHLTSNETIEGAQFKAFPDTGSVPLIGDMSSDILSRPFDLNQFGLVYAGAQKNLGPSGVTVVIVREDLVAESPKHLPTMLRYDTYVKNNSLYNTPPSFGIYMVNEVLKWIEERGGLEGVQQANRKKASLIYDAIDQSGGFYRGCVDVDSRSDMNITFRLASEELEKEFVKASEQEGFVGLKGHRSVGGLRASIYNAVPYESCEALVQFMEHFKRSRG
Tm [8]: 71 °C
unfolding enthalpy (calorimetric) [8]: 288 kcal/mol
Tm [9]: 58.4 °C
unfolding enthalpy (calorimetric) [9]: 121 kcal/mol
Tm [10]: 58 °C
unfolding enthalpy (calorimetric) [10]: 124 kcal/mol

B12: Azurin wild type, P00282 (protein)
chain: MLRKLAAVSLLSLLSAPLLAAECSVDIQGNDQMQFNTNAITVDKSCKQFTVNLSHPGNLPKNVMGHNWVLSTAADMQGVVTDGMASGLDKDYLKPDDSRVIAHTKLIGSGEKDSVTFDVSKLKEGEQYMFFCTFPGHSALMKGTLTLK
denaturant m value [11]: 4.18 kcal/mol/M
denaturant midpoint (higher = more stable) [11]: 1.7 M
unfolding free energy [11]: 6.96 kcal/mol
unfolding free energy (Pseudomonas aeruginosa (strain ATCC 15692 / DSM 22644 / CIP 104116 / JCM 14847 / LMG 12228 / 1C / PRS 101 / PAO1), pH 7.5, 40 °C, GdnHCl, Fluorescence, Tris Cl 2 mM, reversible: Yes): 8.6 kcal/mol
Tm [12]: 62 °C
unfolding enthalpy (calorimetric) [12]: 165 kcal/mol

B13: Apolipophorin-3 wild type, P13276 (protein)
chain: MAAKFVVVLAACVALSHSAMVRRDAPAGGNAFEEMEKHAKEFQKTFSEQFNSLVNSKNTQDFNKALKDGSDSVLQQLSAFSSSLQGAISDANGKAKEALEQARQNVEKTAEELRKAHPDVEKEANAFKDKLQAAVQTTVQESQKLAKEVASNMEETNKKLAPKIKQAYDDFVKHAEEVQKKLHEAATKQ
denaturant m value [13]: 3.65 kcal/mol/M
denaturant midpoint (higher = more stable) [13]: 0.36 M
unfolding free energy [13]: 1.29 kcal/mol
Tm (Manduca sexta, pH 7, Thermal, CD, Potassium phosphate 50 mM, reversible: yes): 52 °C

B14: Cytochrome c-551 wild type, P00099 (protein)
chain: MKPYALLSLLATGTLLAQGAWAEDPEVLFKNKGCVACHAIDTKMVGPAYKDVAAKFAGQAGAEAELAQRIKNGSQGVWGPIPMPPNAVSDDEAQTLAKWVLSQK
Tm [14]: 56 °C
unfolding enthalpy (van 't Hoff) [14]: 39.5 kcal/mol

B15: Plastocyanin wild type, P00287 (protein)
chain: LEVLLGSGDGSLVFVPSEFSVPSGEKIVFKNNAGFPHNVVFDEDEIPAGVDAVKISMPEEELLNAPGETYVVTLDTKGTYSFYCSPHQGAGMVGKVTVN
denaturant m value [15]: 2.7 kcal/mol/M
denaturant midpoint (higher = more stable) [15]: 2.1 M
unfolding free energy [15]: 5.8 kcal/mol
denaturant m value [16]: 2.5 kcal/mol/M
denaturant midpoint (higher = more stable) [16]: 2.1 M
unfolding free energy [16]: 5.3 kcal/mol

B16: Interleukin-6 wild type, P08505 (protein)
chain: MKFLSARDFHPVAFLGLMLVTTTAFPTSQVRRGDFTEDTTPNRPVYTTSQVGGLITHVLWEIVEMRKELCNGNSDCMNNDDALAENNLKLPEIQRNDGCYQTGYNQEICLLKISSGLLEYHSYLEYMKNNLKDNKKDKARVLQRDTETLIHIFNQEVKDLHKIVLPTPISNALLTDKLESQKEWLRTKTIQFILKSLEEFLKVTLRSTRQT
denaturant m value [17]: 0.7 kcal/mol/M
denaturant midpoint (higher = more stable) [17]: 2.7 M
unfolding free energy [17]: 1.8 kcal/mol
denaturant m value [18]: 1.9 kcal/mol/M
denaturant midpoint (higher = more stable) [18]: 3.6 M
unfolding free energy [18]: 6.9 kcal/mol
unfolding free energy (Mus musculus, pH 4, 25 °C, Urea, CD, Sodium acetate 10 mM): 6.8 kcal/mol
unfolding free energy (Mus musculus, pH 4, 25 °C, Urea, Fluorescence, sodium acetate 0.5 M): 6 kcal/mol
denaturant m value [19]: 0.7 kcal/mol/M
denaturant midpoint (higher = more stable) [19]: 4.8 M
unfolding free energy [19]: 3.4 kcal/mol
